Values quoted from earlier work as cited in article PMC12005733.

Biological target: Calbindin D9k C-terminal split part C-terminal half (Bos taurus) (UniProt P02633)

- Kd: 3 pM
Substance: Calbindin D9k N-terminal split part N-terminal half (from UniProt P02633)
